According to patent US20070212679:

Molecular target: T1, human GST-E1 (Boston Biochem), P22314
T1 chain: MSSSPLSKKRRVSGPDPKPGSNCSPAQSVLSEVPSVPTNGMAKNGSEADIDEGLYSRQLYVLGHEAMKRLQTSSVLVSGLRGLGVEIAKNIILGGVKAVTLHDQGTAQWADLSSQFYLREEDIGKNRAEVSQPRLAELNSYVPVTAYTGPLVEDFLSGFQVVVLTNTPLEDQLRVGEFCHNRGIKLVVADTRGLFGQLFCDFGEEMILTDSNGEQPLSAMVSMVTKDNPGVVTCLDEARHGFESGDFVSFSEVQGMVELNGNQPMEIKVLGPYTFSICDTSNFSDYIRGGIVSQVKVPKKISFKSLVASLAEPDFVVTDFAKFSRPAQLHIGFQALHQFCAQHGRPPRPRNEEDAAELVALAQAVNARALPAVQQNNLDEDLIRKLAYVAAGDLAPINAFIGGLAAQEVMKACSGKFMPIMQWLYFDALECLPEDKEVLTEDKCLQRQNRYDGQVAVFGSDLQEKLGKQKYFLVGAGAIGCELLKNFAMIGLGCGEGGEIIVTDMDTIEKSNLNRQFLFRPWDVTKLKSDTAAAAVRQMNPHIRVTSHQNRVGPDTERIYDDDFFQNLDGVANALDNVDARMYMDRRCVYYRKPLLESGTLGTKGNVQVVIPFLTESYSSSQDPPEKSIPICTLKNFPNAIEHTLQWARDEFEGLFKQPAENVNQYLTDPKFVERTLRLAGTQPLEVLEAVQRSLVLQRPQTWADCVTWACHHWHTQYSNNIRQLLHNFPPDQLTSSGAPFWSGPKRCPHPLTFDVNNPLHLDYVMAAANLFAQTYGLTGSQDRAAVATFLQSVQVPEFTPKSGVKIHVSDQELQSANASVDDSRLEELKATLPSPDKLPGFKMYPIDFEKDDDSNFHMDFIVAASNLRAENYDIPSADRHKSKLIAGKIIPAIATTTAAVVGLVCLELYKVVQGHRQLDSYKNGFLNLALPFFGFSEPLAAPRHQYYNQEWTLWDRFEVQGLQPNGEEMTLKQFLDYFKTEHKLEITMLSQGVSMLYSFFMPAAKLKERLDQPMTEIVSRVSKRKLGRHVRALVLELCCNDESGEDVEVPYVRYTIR

B1: His6-Parkin (full-length human Parkin fused to an N-terminal histidine tag, from E. coli, refolded) (protein)
chain: IYICTIIIIISSGLVPRGSGMKETAAAKFERQHMDSPDLGTDDDDKAMADIGSAATMIVFVRFNSSHGFPVEVDSDTSIFQLKEVVAKRQGVPADQLRVIFAGKELRNDWTVQNCDLDQQSIVHIVQRPWRKGQEMNATGGDDPRNAAGGCEREPQSLTRVDLSSSVLPGDSVGLAVILHTDSRKDSPPAGSPAGRSIYNSFYVYCKGPCQRVQPGKLRVQCSTCRQATLTLTQGPSCWDDVLIPNRMSGECQSPHCPGTSAEFFFKCGAHPTSDKETPVALHLIATNSRNITCITCTDVRSPVLVFQCNSRHVICLDCFHLYCVTRLNDRQFVHDPQLGYSLPCVAGCPNSLIKELHHFRILGEEQYNRYQQYGAEECVLQMGGVLCPRPGCGAGLLPEPDQRKVTCEGGNGLGCGFAFCRECKEAYHEGECSAVFEASGTTTQAYRVDERAAEQARWEAASKETIKKTTKPCPRCHVPVEKNGGCMHMKCPQPQCRLEWCWNCGCEWNRVCMGDHWFDV
- ubiquitination of Parkin in the absence of UbcH7 (biotin-ubiquitin detected on blot with NeutrAvidin-HRP): some reaction product was seen in the absence of UbcH7 when Parkin was incubated with E1 and ubiquitin for 90 minutes
